What was measured:
[1] = tested on: Panc1 cells; test: Panc1 cell migration and invasion after rhDKK3; assay type: cell-based, human; conditions: Panc1, 10 μg/mL, 24 hours
Method: FIGS. 2A-J. DKK3 stimulates HPSC and PDAC activity and increases chemoresistance. (FIG. 2A) HPSC proliferation was measured by MTT after treatment with PBS or rhDKK3 (10 μg/ml). DKK3 was silenced in HPSCs by shDKK3 (FIG. 2B) and cell proliferation was measured by MTT assay (FIG. 2B) and migration was determined at 24 hours (FIG. 2C). Control cells were transfected with scrambled shRNA. (FIG. 2D) Panc1 cells were treated with rhDKK3 (10 μg/ml) or serum-free media control, and cell migration and invasion were measured after 24 hours. (FIGS. 2E-F) Panc1 cells were stably silenced for DKK3 and cell proliferation (FIG. 2E) and colony formation in soft agar (FIG. 2F) were measured. (FIG. 2G) BxPC3 cell migration was measured after treatment with CM from HPSCs or HPSCs silenced for DKK3. Soft agar colony formation (FIG. 2H) in gemcitabine and apoptosis (FIG. 2I) was determined in chemosensitive L3.6p1 cells expressing DKK3 compared with transfection controls. (FIG. 2J) Gemcitabine-induced apoptosis was measured in chemoresistant HS766T cells silenced for DKK3. *p<0.01, **p<0.001, ***p<0.0001, ****p<0.00001.
(§1) Cell-based assays. Cell proliferation was measured by the MTS assay (Promega, Madison, Wis.). […]

[2] = tested on: NF-κB; test: NF-κB luciferase reporter assay in Panc28; assay type: cell-based, human; conditions: parental Panc28 cells
Method: FIGS. 3A-F. NF-κB is activated in PSCs and PDAC cells by DKK3 and is necessary for DKK3-mediated stimulation of cell activity. (FIG. 3A) Phosphorylation of p65 and IκBα induced by DKK3 treatment (10 μg/ml) was determined by Western blotting. Relative protein loading was shown by using anti-β-actin antibody. (FIG. 3B) Time course of p65 activation by WB in HPSC and Panc1 cells. Cells were treated with recombinant DKK3 (10 μg/ml) for 0-24 h and change in band density relative to baseline were quantified. (FIG. 3C) DKK3 stimulates NFκB luciferase reporter in HPSC & PDAC cells, with mutant luc reporter (MT). NFκB activity induced by DKK3 was measured in Panc28 with phosphorylation-defective IκBαM by luciferase reporter (FIG. 3D) and Western blotting (FIG. 3E). For FIGS. 3C&D, in each set of three columns, the left is “PBS,” the middle is “DKK3,” and the right is “TNFα.” (FIG. 3F) Proliferation of Panc28 and Panc28/IκBαM was measured by MTT assay. *p<0.05, **p<0.01, ***p<0.001 and ****p<0.0001 vs. PBS control.
NF-κB activity. NF-κB activity was determined by using a luciferase reporter assay. […] Luciferase signal was detected by using D-luciferin firefly potassium salt (Caliper Life Sciences, Hopkinton, Mass.) and the IVIS® imaging system (Xenogen Corp., Alameda, Calif.). […]

[3] = tested on: CD3+ T cells; test: T cell division assay (CFSE); assay type: cell-based, human; conditions: stimulated CD3+ T cells, DKK3 5-10 μg/mL
Method: FIGS. 6A-F. DKK3 blockade is associated with increased tumor immune infiltrates and improves response to checkpoint inhibitor therapy. (FIG. 6A) T cells were stimulated, treated with DKK3 (5-10 μg/mL) and proliferation was measured by CFSE assay. In a syngeneic orthotopic model with luciferase-labeled KPC cells, tumors were examined for CD3 and CD8 expression by IHC (FIG. 6B) and additional markers of T cell activity were measured by quantitative PCR (FIG. 6C). Mice in this model were treated with either control IgG, DKK3 mAb JM6-6-1, αCTLA4 or the combination JM6-6-1+αCTLA4 and tumor growth was measured by IVIS imaging to 25 and 190 days (FIG. 6D). Survival in this orthotopic implantation model is shown in (FIG. 6E). Using a GEMM (FIG. 6F), KPC/DKK3^+/+ (black line) or KPC/DKK3^−/− (blue line) mice were treated with αCTLA4 or control IgG and the Kaplan Meier survival curve is shown. *p<0.05, **p<0.01, ***p<0.001.
T cell division assay. Peripheral blood mononuclear cells (PBMC) were obtained from buffy coat by density centrifugation using Histopaque 1077 (Sigma) and CD3^+ T-cells were isolated using a pan T-cell isolation kit (Miltenyi Biotec). […] DKK3 or HPSC-CM was added and after 96 hours, cells were stained for CD3, CD4, and CD8 to define lineage and analyzed by flow cytometry. […]

[4] = tested on: BxPC3 cells; test: BxPC3 Transwell migration in response to rhDKK3; assay type: cell-based, human; conditions: BxPC3, rhDKK3 10 μg/ml, 48 hours
Method: (§2) HPSCs and BxPC3 cells were treated with DKK3 mAb clones JM6-6-1 and JM8-12-1 or isotype control mAb or PBS. (FIGS. 5A-B) HPSC apoptosis and migration as measured by FACS and Transwell migration assay at 48 hours. (FIG. 5C) BxPC3 migration in response to rhDKK3 10 μg/ml as measured by Transwell migration assay at 48 hours. (FIG. 5D) BxPC3 resistance to gemcitabine 100 μM as measured by MTS proliferation assay at 6 days. HPSC-CM, pancreatic stellate cell conditioned media, 10 μg/ml. The orthotopic co-injection BxPC3+ HPSC model of PDAC was used to test the efficacy of DKK3 mAb clones JM6-6-1 or JM8-12-1 (5 mg/kg i.p. once every 5 days). (FIG. 5E) Overall tumor progression was measured every 3-4 days by IVIS imaging. (FIG. 5F) Metastatic tumors in the peritoneal cavity after removal of the primary pancreatic tumor are shown by IVIS imaging. (FIG. 5G) Kaplan Meier survival curve showing mice treated with DKK3 mAb clone JM8-12 (right-most line), control mAb (middle line), or PBS (left-most line). (FIG. 5H) KPC mice (P48-Cre; Kras LSL-G12D;Trp53fl/fl) with either wild type DKK3 (solid lines) or deficient in DKK3 (“DKK3-KO,” dashed lines) were treated with DKK3 mAb JM6-6-1 (5 mg/kg i.p. once every 5 days), PBS or control mAb. […]
as §1

[5] = tested on: BxPC3 cells; test: BxPC3 resistance to gemcitabine, MTS proliferation assay; assay type: cell-based, human; conditions: BxPC3, gemcitabine 100 μM, HPSC-CM 10 μg/ml, 6 days
Method: as §2, §1

[6] = tested on: BxPC3 + HPSC orthotopic tumors; test: Orthotopic co-injection BxPC3 + HPSC nude mouse model of PDAC; assay type: in vivo; conditions: 5 mg/kg i.p. once every 5 days
Method: HPSCs and BxPC3 cells were treated with DKK3 mAb clones JM6-6-1 and JM8-12-1 or isotype control mAb or PBS. (FIGS. 5A-B) HPSC apoptosis and migration as measured by FACS and Transwell migration assay at 48 hours. (FIG. 5C) BxPC3 migration in response to rhDKK3 10 μg/ml as measured by Transwell migration assay at 48 hours. (FIG. 5D) BxPC3 resistance to gemcitabine 100 μM as measured by MTS proliferation assay at 6 days. HPSC-CM, pancreatic stellate cell conditioned media, 10 μg/ml. The orthotopic co-injection BxPC3+ HPSC model of PDAC was used to test the efficacy of DKK3 mAb clones JM6-6-1 or JM8-12-1 (5 mg/kg i.p. once every 5 days). (FIG. 5E) Overall tumor progression was measured every 3-4 days by IVIS imaging. (FIG. 5F) Metastatic tumors in the peritoneal cavity after removal of the primary pancreatic tumor are shown by IVIS imaging. (FIG. 5G) Kaplan Meier survival curve showing mice treated with DKK3 mAb clone JM8-12 (right-most line), control mAb (middle line), or PBS (left-most line). (FIG. 5H) KPC mice (P48-Cre; Kras LSL-G12D;Trp53fl/fl) with either wild type DKK3 (solid lines) or deficient in DKK3 (“DKK3-KO,” dashed lines) were treated with DKK3 mAb JM6-6-1 (5 mg/kg i.p. once every 5 days), PBS or control mAb. Kaplan Meier survival curve is shown with hazard ratios (Log-rank test). *p<0.05, **p<0.01, ***p<0.001, ****p<0.0001 vs. control Ab.
An orthotopic nude mouse model of PDAC using BxPC3 cancer cells labeled with firefly luciferase (BxPC3-FL) co-injected with HPSCs has been previously described (Hwang et al., 2008). Mice received intrapancreatic injections of BxPC3-FL (1×10^6 per mouse) with HPSC-shControl or HPSC-shDKK3 in a tumor-to-stroma ratio of 1:0 or 1:3 in 50-μL of HBSS and tumor growth was monitored using IVIS imaging (Hwang et al., 2008). In addition, a syngeneic immunocompetent DKK3 null model was used, provided by Dr. C. Niehrs (Barrantes Idel et al., 2006), that was injected with murine PDAC cells (termed “KPC cells”) isolated from tumors arising in a GEMM of PDAC (Pdx1-Cre; Kras^LSL-G12D;Trp53^R172H/+) (Hingorani et al., 2005; Hingorani et al., 2003) and labeled with luciferase.
The efficacy of DKK3 mAb was tested in vivo using the previously described orthotopic co-implantation nude mouse model of PDAC with human PSCs mixed with luciferase-labeled BxPC3 cancer cells (1:3 tumor:PSC ratio). Mice were treated with either phosphate-buffered saline (PBS), isotype control mAb, or DKK3 mAb (clone JM6-6-1; 5 mg/kg i.p. once every 5 days) and tumor growth was followed with IVIS imaging. […] Tumors in the PBS and control mAb groups grew rapidly from day 22 onward, with an 8-fold increase in the luciferase signal.

[7] = molecular target: T1, recombinant human DKK3 (human, UniProt Q9UBP4 22-350); test: non-denaturing Western blot of recombinant protein
T1 construct: Bought recombinant protein (R&D); also called rhDKK3; recombinant human DKK-3/His

[8] = molecular target: T2, recombinant mouse DKK3 (mouse, UniProt Q9QUN9 23-349, limits assumed); test: non-denaturing Western blot of recombinant protein
T2 construct: also called murine DKK3
T2 sequence (Q9QUN9 23-349 limits assumed): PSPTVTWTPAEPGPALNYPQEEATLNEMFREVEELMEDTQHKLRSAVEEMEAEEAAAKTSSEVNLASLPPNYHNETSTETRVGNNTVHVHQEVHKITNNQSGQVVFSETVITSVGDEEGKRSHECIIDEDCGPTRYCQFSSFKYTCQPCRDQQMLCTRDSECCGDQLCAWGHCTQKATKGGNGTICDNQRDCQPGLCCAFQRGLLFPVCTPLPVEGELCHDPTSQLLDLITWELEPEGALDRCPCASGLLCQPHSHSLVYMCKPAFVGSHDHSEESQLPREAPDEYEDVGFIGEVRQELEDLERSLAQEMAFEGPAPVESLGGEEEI

T1 sequence (Q9UBP4 22-350 limits assumed): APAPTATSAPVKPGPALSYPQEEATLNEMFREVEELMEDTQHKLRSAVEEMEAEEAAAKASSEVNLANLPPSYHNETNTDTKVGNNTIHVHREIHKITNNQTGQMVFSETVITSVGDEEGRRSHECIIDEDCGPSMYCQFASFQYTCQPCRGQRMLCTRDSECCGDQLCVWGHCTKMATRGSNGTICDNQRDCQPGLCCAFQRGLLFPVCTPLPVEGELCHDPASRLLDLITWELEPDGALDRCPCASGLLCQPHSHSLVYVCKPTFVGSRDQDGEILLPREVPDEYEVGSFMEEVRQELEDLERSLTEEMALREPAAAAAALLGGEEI

Molecule: rhDKK3: recombinant human DKK3 (R&D)
- increase in invasion vs PBS controls [1]: > 3 fold
- increase in migration vs PBS controls [1]: ~100%
- induction of NF-κB promoter activity relative to PBS control [2]: 33%
- inhibition of cell proliferation compared to media alone [3]: 4.7-11.5 fold

B1: JM8-12-1: monoclonal antibody against human DKK3; heavy chain variable SEQ ID NO: 17, light chain variable SEQ ID NO: 18 (tabled as JM8-12-2) (antibody, V domains shown)
VH: MKPSQSLSLTCTVTGYSITSDYAWNWIRQFPGNKLEWMGYISYRGSTRYNPSLKSRISITRDTSKNQLYLQLHSVTTEDTATYYCVHDGYYWVQQTLVTVSAAKTTPPSDY
VL: QDPRVDIVLTQSPASLAVSLFQRATISYRASKSVSTSGYSYMHWNQQKPGQPPRLLIYLVSNLESGVPARFSGSGSGTDFTLNIHPVEEEDAATYYCQHIRELTRSEGGPSWK
- effect on DKK3-mediated induction of migration [4]: reverse the DKK3-mediated induction of migration
- effect on DKK3-mediated chemoresistance to gemcitabine [5]: abrogated the DKK3-mediated induction of chemoresistance to gemcitabine
- hazard ratio compared with PBS control group [6]: 0.26
- median survival [6]: 50 days

B2: DKK3 mAb clone JM6-6-1 (antibody, V domains shown)
VH: EVKLVESGGGLVKPGGSLKLSCAASGFTFTIEYMAWIRQTPEKRLEWVASISSGGDDIYYADNVKGRFTISRDNAKNTLYLQMSSLKSEDTAIYYCSRSLSDWGQGTTLTVSS
VL: MTQTPLSLPVSLGDQASISCRSSQSILHSNGHTYLEWYLQKPGQSPKLLIYKVSNRFSGVPDRFSGSGSGTDFTLKISRVEAEDLGVYYCFQGSHVPFTFGSGTKLEIER
notes: Mouse hybridoma mAb from A/J mice immunized with recombinant human DKK-3/His; the negative control is an IgG1 isotype control; also called anti-DKK3 mAb JM6-6-1; DKK3 antibody JM6-6-1
- binding result [7]: binds
- binding result [8]: binds

Reference: patent US20210340232A1, “MONOCLONAL ANTIBODIES AGAINST HUMAN DICKKOPF3 AND USES THEREOF” (Board of Regents, The University of Texas System, priority 2018, published 2021)
